From patent US20220154138A1, “METHOD OF PRODUCING PLACENTA-LIKE ORGANOID, PLACENTA-LIKE ORGANOID, AND PRODUCTION OR TEST KIT” (FUJIFILM Corporation, priority 2020, published 2022)

What was measured:
iPS cells [1] = assay: Two-dimensional adhesion culture with BMP4, hCG quantified by i-STAT cartridge Total β-hCG; assay type: cell-based, human
Procedure: (§1) In the i-STAT cartridge Total β-hCG, about 17 μL of the culture supernatant was sampled, injected into the reagent cartridge, and inserted into the single-purpose analyzer.
Two-dimensional adhesion culture was carried out by the following method. Laminin (iMatrix-511: Nippi. Inc.) was diluted with Dulbecco's phosphate buffered saline (DPBS), 1 mL thereof per well was dispensed into a 6-well plate (Falcon TC: #353046), and the plate was allowed to stand in a 37° C. incubator for 1 hour to be coated with laminin. 2 mL of an iPS cell medium (StemFit (registered trade name) AK02N: Ajinomoto Co., Inc.) was dispensed into the laminin-coated plate in a state where a BMP4 solution was not added, iPS cells (4×10^4 cells/well) were seeded therein, the culture was continued while appropriately changing the medium, and from the 4th day of culture, 2 mL of an iPS cell culture medium (StemFit (registered trade name) AK02N: Ajinomoto Co., Inc.) to which 2 μL of a solution containing 50 μg/mL BMP4 (R&D Systems Inc.) solution had been added so that the BMP4 concentration was to be 50 ng/mL was used at the time of the medium exchange.
(§2) On the other hand, three-dimensional suspension culture was started at the same time using the same iPS cells used in the two-dimensional culture adhesion culture. 30 mL of an iPS cell medium (StemFit (registered trade name) AK02N: Ajinomoto Co., Inc.) was dispensed into a 30 mL volume spinner flask (ABLE Corporation), and then iPS cells (1.3×10^6 cells/mL) were seeded. In the same manner as in the two-dimensional adhesion culture, BMP4 was not added at the start of culture, but a medium to which a solution containing 50 μg/mL BMP4 (R&D Systems Inc.) was added at the same proportion as that used in the two-dimensional adhesion culture was used after the 4th day of culture. After the start of culture, the addition of BMP4 to the medium was continued until the 14th day of culture while the medium was exchanged every 3 to 4 days, and thereafter, a medium to which BMP4 had not been added was used. In three-dimensional suspension culture, stirring culture was continued in a spinner flask throughout the culture period. While continuing the two-dimensional adhesion culture and the three-dimensional suspension culture, the culture supernatant was appropriately sampled after the 7th day of culture, and the amount of hCG produced was quantified using the i-STAT cartridge Total β-hCG. Since there are differences in the number of cells that can be seeded at the start of culture and the adding amount of medium between the two-dimensional culture and the three-dimensional culture, there are differences in the hCG concentration and the total hCG production in the culture supernatant, and thus it is not possible to simply compare them. For this reason, the hCG quantification value on the 7th day of culture after the start of differentiation induction into the placenta was set to 100, and the ratio of the hCG quantification value on the subsequent culture measurement day to the hCG quantification value on the 7th day of culture was calculated. That is, in a case where the hCG quantification value on the 7th day is set to 100 in each of the two-dimensional and three-dimensional culture forms, the subsequent changes after the 7th day in the hCG production amount are shown in FIG. 2. It was confirmed that in the two-dimensional culture, the decrease in hCG production amount is particularly remarkable after the 15th day of culture, whereas in the three-dimensional culture, the hCG continues to be produced after the 15th day, and even on the 25th day of culture, 10 times or more of the hCG production is maintained as compared with the 7th day of culture.

iPS cells [2] = assay: Three-dimensional suspension culture with BMP4, hCG quantified by i-STAT cartridge Total β-hCG; assay type: cell-based, human
Procedure: as §1, §2

[3] = Three-dimensional culture, day 10
[4] = Three-dimensional culture, day 14
[5] = Three-dimensional culture, day 17
[6] = Three-dimensional culture, day 19
[7] = Three-dimensional culture, day 21
[8] = Three-dimensional culture, day 25

B1: BMP4: bone morphogenetic protein BMP4 (R&D Systems Inc.), added to iPS cell medium at 50 ng/mL to induce differentiation (protein, UniProt P12644 293-408, looked up)
Bone morphogenetic protein 4: SPKHHSQRARKKNKNCRRHSLYVDFSDVGWNDWIVAPPGYQAFYCHGDCPFPLADHLNSTNHAIVQTLVNSVNSSIPKACCVPTELSAISMLYLDEYDKVVLKNYQEMVVEGCGCR
For B1, the hCG production (iPS cells [1]; BMP4 50 ng/mL from day 4, day 7) was 6.6 IU, the “hCG* production (hCG production on each of culture days/hCG production amount on 7th day) × 100” value (iPS cells [1]; day 7) was 100 AU and the hCG production (iPS cells [1]; day 11) was 8.0 IU. The “hCG* production (relative to 7th day × 100)” value (iPS cells [1]; day 11) was 120 AU, the hCG production (iPS cells [1]; day 15) was 5.0 IU and the “hCG* production (relative to 7th day × 100)” value (iPS cells [1]; day 15) was 75 AU. The hCG production (iPS cells [1]; day 18) was 4.1 IU, the “hCG* production (relative to 7th day × 100)” value (iPS cells [1]; day 18) was 62 AU and the hCG production (iPS cells [1]; day 22) was 1.4 IU. For the same molecule, the “hCG* production (relative to 7th day × 100)” value (iPS cells [1]; day 22) was 20 AU, the hCG production (iPS cells [1]; day 25) was 1.6 IU and the “hCG* production (relative to 7th day × 100)” value (iPS cells [1]; day 25) was 25 AU. For the same molecule, the hCG production (iPS cells [2]; Three-dimensional culture, BMP4 day 4 to 14, day 7) was 1.6 IU, the “hCG* production (hCG production on each of culture days/hCG production amount on 7th day) × 100” value (iPS cells [2]; Three-dimensional culture, day 7) was 100 AU and the hCG production (iPS cells [2]; [3]) was 61 IU. The “hCG* production (relative to 7th day × 100)” value (iPS cells [2]; [3]) was 3,936 AU, the hCG production (iPS cells [2]; [4]) was 79 IU and the “hCG* production (relative to 7th day × 100)” value (iPS cells [2]; [4]) was 5,044 AU. For the same molecule, the hCG production (iPS cells [2]; [5]) was 120 IU, the “hCG* production (relative to 7th day × 100)” value (iPS cells [2]; [5]) was 7,692 AU and the hCG production (iPS cells [2]; [6]) was 120 IU. For the same molecule, the “hCG* production (relative to 7th day × 100)” value (iPS cells [2]; [6]) was 7,692 AU, the hCG production (iPS cells [2]; [7]) was 54 IU and the “hCG* production (relative to 7th day × 100)” value (iPS cells [2]; [7]) was 3,465 AU. The hCG production (iPS cells [2]; [8]) was 23 IU, the “hCG* production (relative to 7th day × 100)” value (iPS cells [2]; [8]) was 1,498 AU and the “hCG production on 25th day as compared with the 7th day of culture” value (iPS cells [2]; three-dimensional culture) was at least 10 times.
